Test in all cases: biochemical
Holding throughout (type): biochemical

The target in experiment [1] is T1, 266 human kinases (Homo sapiens, UniProt Q8IYT8).
T1 sequence (Q8IYT8 1-1036): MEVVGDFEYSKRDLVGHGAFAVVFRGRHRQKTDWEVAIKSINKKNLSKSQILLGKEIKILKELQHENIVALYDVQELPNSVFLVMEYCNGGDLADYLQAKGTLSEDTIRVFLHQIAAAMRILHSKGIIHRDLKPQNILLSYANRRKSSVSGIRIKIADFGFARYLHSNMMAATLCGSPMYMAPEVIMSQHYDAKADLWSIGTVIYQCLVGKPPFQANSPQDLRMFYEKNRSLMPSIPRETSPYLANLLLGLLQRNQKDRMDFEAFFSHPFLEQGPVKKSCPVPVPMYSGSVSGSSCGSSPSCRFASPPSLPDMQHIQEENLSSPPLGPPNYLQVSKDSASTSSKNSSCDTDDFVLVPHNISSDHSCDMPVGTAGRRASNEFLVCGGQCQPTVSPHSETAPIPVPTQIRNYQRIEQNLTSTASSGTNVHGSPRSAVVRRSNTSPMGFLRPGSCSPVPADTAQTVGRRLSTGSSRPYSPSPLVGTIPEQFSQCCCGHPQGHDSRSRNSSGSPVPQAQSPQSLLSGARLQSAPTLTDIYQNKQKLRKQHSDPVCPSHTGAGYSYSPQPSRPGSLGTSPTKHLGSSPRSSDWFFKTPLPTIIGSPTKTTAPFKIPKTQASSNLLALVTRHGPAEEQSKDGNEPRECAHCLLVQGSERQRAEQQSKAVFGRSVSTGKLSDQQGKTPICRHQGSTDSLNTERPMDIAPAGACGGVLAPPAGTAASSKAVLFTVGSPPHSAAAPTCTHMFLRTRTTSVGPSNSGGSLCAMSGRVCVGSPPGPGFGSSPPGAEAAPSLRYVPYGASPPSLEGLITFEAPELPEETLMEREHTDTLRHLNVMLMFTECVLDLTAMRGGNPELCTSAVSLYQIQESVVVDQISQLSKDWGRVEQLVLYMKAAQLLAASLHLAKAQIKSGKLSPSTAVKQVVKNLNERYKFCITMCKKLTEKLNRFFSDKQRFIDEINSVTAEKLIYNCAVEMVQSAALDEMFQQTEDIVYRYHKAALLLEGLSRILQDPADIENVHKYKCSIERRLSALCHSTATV
The conditions noted are these: ULK2(h); 100 μM. The method in brief: (§1)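 A filter-capture radiometric assay: phosphorylated cationic substrate binds an anionic membrane and is scintillation-counted, with values referenced to full-activity control.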

Experiment [2] addresses 266 human kinases (Homo sapiens, UniProt P07949). Particulars: Ret(h); 100 μM. The method in brief: as §1
Experiment [3] addresses 266 human kinases (Homo sapiens, UniProt Q05397). The conditions noted are these: FAK(h); 100 μM. The method in brief:
as §1

Experiment [4] has as its target T2, 266 human kinases (Homo sapiens, UniProt P42680).
T2 sequence (P42680 1-631): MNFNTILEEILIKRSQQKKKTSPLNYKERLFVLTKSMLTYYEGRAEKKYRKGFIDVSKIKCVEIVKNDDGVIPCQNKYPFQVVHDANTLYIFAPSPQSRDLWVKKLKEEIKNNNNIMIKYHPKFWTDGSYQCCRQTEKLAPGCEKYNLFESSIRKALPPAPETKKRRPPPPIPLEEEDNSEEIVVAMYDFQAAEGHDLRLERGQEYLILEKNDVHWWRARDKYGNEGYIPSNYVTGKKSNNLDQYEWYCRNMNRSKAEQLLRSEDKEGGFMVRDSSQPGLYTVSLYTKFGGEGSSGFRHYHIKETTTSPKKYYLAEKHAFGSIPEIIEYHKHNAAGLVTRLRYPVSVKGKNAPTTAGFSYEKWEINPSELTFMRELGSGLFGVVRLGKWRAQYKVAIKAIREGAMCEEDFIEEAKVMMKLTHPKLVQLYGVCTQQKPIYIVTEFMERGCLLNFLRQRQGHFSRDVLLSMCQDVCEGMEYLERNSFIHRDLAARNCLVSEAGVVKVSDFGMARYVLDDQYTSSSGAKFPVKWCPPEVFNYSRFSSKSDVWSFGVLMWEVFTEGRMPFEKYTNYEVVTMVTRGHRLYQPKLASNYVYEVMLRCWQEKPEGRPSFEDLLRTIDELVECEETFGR
Particulars: Tec(h)activated; 100 μM. Summed up: as §1

Experiment [5] has as its target 266 human kinases (Homo sapiens, UniProt P54646). Particulars: AMPKα2(h); 100 μM. Summed up:
as §1

Experiment [6] deals with 266 human kinases (Homo sapiens, UniProt P05129). The conditions noted are these: PKCγ(h); 100 μM. Summed up: as §1

Sequence of 266 human kinases (Homo sapiens, UniProt P54646) (P54646 whole entry): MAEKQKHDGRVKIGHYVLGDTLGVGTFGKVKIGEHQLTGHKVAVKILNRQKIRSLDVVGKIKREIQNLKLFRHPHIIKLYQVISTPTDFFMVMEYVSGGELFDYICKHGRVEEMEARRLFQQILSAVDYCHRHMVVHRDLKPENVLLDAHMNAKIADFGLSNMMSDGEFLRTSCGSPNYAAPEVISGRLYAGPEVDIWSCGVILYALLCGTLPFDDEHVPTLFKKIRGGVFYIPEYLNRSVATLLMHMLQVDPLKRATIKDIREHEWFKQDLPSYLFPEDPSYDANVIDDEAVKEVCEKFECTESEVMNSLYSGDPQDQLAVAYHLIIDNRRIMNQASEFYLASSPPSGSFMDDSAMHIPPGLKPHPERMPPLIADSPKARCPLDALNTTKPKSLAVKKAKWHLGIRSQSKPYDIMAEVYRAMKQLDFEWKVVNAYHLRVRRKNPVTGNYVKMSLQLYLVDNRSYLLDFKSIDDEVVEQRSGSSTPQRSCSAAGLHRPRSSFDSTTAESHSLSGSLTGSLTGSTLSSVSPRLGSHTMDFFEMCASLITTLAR
Sequence of 266 human kinases (Homo sapiens, UniProt Q05397) (Q05397 whole entry): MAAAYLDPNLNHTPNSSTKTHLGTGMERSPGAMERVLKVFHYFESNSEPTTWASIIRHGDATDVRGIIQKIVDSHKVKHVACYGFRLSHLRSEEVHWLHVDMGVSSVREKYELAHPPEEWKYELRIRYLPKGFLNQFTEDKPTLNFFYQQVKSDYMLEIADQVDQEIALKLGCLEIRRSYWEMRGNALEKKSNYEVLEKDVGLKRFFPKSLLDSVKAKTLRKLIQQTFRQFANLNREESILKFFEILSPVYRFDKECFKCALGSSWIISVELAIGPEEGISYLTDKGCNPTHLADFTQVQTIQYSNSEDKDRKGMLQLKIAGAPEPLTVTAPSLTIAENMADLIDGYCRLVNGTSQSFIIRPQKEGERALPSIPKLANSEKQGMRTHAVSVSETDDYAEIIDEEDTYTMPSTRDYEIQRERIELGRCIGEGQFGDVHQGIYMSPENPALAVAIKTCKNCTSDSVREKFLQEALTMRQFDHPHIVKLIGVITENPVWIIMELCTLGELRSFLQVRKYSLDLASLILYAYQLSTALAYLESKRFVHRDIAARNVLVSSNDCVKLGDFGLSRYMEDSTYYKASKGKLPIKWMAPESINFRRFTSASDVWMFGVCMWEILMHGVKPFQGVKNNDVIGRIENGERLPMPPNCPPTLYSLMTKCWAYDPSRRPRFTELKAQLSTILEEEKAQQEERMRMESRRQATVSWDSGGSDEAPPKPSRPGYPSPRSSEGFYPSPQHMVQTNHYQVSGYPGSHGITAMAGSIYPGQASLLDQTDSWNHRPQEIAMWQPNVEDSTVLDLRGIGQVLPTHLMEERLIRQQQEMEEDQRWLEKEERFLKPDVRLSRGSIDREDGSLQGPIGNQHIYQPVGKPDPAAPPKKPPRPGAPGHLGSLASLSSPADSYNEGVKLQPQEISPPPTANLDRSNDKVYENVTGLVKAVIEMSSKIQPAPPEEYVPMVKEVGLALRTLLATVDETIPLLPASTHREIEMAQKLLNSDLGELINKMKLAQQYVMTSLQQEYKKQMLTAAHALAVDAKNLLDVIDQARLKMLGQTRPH

Regarding “YARAAARQARAKALNRQLGVA (mammal) [MMI-0200]”, the “% activity” value with 266 human kinases [1] came out at 132%; with 266 human kinases [2], 96%; with 266 human kinases [3], 110%; in the experiment with 266 human kinases [4] it was 77%; with 266 human kinases [5], 88%; with 266 human kinases [6], 101%.
Turning to “HRRIKAWLKKIKALARQLGVAA (mammal) [MMI-0500]”, the “% activity” value in the experiment with 266 human kinases [1] turned out to be 124%; with 266 human kinases [2] it was 174%; with 266 human kinases [3], 94%; in the experiment with 266 human kinases [4], 33%; in the experiment with 266 human kinases [5] it was 9%; with 266 human kinases [6], 6%.

The values above are taken from US20140072613A1, “Compositions and Methods for Treating Cutaneous Scarring” (priority 2012, published 2014).
